Experimental data reported in US20020156009A1 (published 2002).

Experiments:
[1] = target: interleukin-1 (IL-1) receptor on human cells (human) (UniProt P14778); assay: cell-based or functional assay
[2] = target: T1, bovine serum albumin (BSA) (bovine, UniProt P02769 25-607); assay: FACS on human fibroblast cells (CCD 1089)
T1 construct: also called non-related protein
Method: A cell binding assay was carried out, in a modification of the procedure as described above in Example 7.1, to determine if IL-1 Hy2 of the invention binds to the interleukin-1 (IL-1) receptor. Briefly, fluorescent activated cell sorting (FACS) was used to measure cell binding of the recombinant protein (see Example 6) using fluorescent antibodies specific for the express tag on the IL-1 Hy2 recombinant protein. In each reaction, 10⁶ cells of human fibroblast cells (CCD 1089) were suspended in 100 μl of FACS buffer (containing distilled PBS, 3% calf serum and 0.01% azide). Cell binding reactions included 5 nM recombinant IL-1 Hy2 in 100 μl cell suspension. The cells were incubated on ice for one hour. The cells were pelleted by centrifugation, 200 μl of 0.2 mM BS3 (crosslinker) was added, and the cells were kept on ice for 30 minutes. Next, 10 μl […] pH 7.5 was added and the cells were incubated for 15 minutes on ice. The cells were pelleted by centrifugation, washed one time in FACS buffer, resuspended in 100 μl volume of FACS buffer, 2 μl primary antibody (anti-express tag antibody 1 mg/ml) was added, and incubation continued on ice for an additional 30 minutes. […] The cells were again pelleted by centrifugation, washed two times with FACS buffer, resuspended in 0.5 ml FACS buffer and analyzed on FACS.

T1 sequence (P02769 25-607 limits assumed): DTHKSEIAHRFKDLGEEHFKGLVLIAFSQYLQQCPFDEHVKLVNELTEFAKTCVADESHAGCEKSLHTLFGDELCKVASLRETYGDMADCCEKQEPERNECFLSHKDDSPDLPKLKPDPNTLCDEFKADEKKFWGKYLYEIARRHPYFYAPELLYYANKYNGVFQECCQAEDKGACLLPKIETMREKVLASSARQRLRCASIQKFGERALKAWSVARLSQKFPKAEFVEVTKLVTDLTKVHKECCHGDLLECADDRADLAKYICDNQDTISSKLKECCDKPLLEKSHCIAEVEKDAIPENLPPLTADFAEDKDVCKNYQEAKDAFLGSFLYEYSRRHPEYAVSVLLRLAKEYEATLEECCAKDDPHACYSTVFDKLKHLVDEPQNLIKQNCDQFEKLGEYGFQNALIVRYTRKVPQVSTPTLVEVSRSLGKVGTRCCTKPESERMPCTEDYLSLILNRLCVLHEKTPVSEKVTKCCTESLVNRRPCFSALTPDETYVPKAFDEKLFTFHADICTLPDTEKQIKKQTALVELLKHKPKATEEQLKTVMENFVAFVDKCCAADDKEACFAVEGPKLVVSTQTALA

Row | inhibition of IL-1β induced PGE2 production, human fibroblasts (CCD 1098), 1 ng/ml IL-1β, IL-1 Hy2 at 1000 fold excess, PGE2 ELISA [1] | Molecule | binding result [2]
1 | 40 to 60% | IL-1 Hy2 (preparation used in the cell-based activity assays) (from UniProt Q8WWZ1 1-152) (ligand) | –
2 | – | interleukin-1 (IL-1) receptor on human cells (receptor, UniProt P14778 18-569, looked up, whole, on cells) LEADKCKEREEKIILVSSANEIDVRPCPLNPNEHKGTITWYKDDSKTPVSTEQASRIHQHKEKLWFVPAKVEDSGHYYCVVRNSSYCLRIKISAKFVENEPNLCYNAQAIFKQKLPVAGDGGLVCPYMEFFKNENNELPKLQWYKDCKPLLLDNIHFSGVKDRLIVMNVAEKHRGNYTCHASYTYLGKQYPITRVIEFITLEENKPTRPVIVSPANETMEVDLGSQIQLICNVTGQLSDIAYWKWNGSVIDEDDPVLGEDYYSVENPANKRRSTLITVLNISEIESRFYKHPFTCFAKNTHGIDAAYIQLIYPVTNFQKHMIGICVTLTVIIVCSVFIYKIFKIDIVLWYRDSCYDFLPIKASDGKTYDAYILYPKTVGEGSTSDCDIFVFKVLPEVLEKQCGYKLFIYGRDDYVGEDIVEVINENVKKSRRLIIILVRETSGFSWLGGSSEEQIAMYNALVQDGIKVVLLELEKIQDYEKMPESIKFIKQKHGAIRWSGDFTQGPQSAKTRFWKNVRYHMPVQRRSPSSKHQLLSPATKEKLQREAHVPLG | no binding (tested: same molarity as IL-1 Hy2 (5 nM))
